The values below come from the Immune Epitope Database (IEDB).

Test [1] concerns the target HLA-B*57:01. The experiment in a line: IEDB peptide-MHC binding, purified MHC/competitive/radioactivity; filed as Kd, often an IC50 or EC50 that approximates it; ≥ and ≤ were set here for values at or beyond the usual limits of such assays.
The target of test [2] is HLA-B*58:01. Described as above.
In test [3] the target is HLA-A*03:01. In words: IEDB peptide-MHC binding, purified MHC/direct/fluorescence; filed as Kd, often an IC50 or EC50 that approximates it; ≥ and ≤ were set here for values at or beyond the usual limits of such assays.
Test [4] deals with HLA-A*31:01. In words: IEDB peptide-MHC binding, purified MHC/competitive/fluorescence; filed as Kd, often an IC50 or EC50 that approximates it; ≥ and ≤ were set here for values at or beyond the usual limits of such assays.
Another test has as its target HLA-A*11:01. In words: IEDB peptide-MHC binding, purified MHC/direct/fluorescence; filed as Kd, often an IC50 or EC50 that approximates it; ≥ and ≤ were set here for values at or beyond the usual limits of such assays.
The next test addresses HLA-B*53:01. The experiment in a line: IEDB peptide-MHC binding, purified MHC/competitive/radioactivity; filed as Kd, often an IC50 or EC50 that approximates it; ≥ and ≤ were set here for values at or beyond the usual limits of such assays.
The target of a further test is HLA-A*02:03. In words: IEDB peptide-MHC binding, purified MHC/competitive/fluorescence; filed as Kd, often an IC50 or EC50 that approximates it; ≥ and ≤ were set here for values at or beyond the usual limits of such assays. The conditions noted are these: source organism: Entamoeba dispar SAW760.
The target in another test is HLA-A*02:12. Described as above. The conditions noted are these: source organism: Entamoeba dispar SAW760.
The target in another test is HLA-A*02:19. The description is as above. The conditions noted are these: source organism: Entamoeba dispar SAW760.
In a further test the target is HLA-A*23:01. Described as above.
The target of test [5] is HLA-A*24:03. The description is as above. The conditions noted are these: source organism: Entamoeba dispar SAW760.
Test [6] addresses HLA-A*26:01. The test is described as above. The conditions noted are these: source organism: Entamoeba dispar SAW760.
For a further test, the target named is HLA-A*68:02. Described as above. The conditions noted are these: source organism: Entamoeba dispar SAW760.
Test [7] deals with HLA-A*69:01. The description is as above. The conditions noted are these: source organism: Entamoeba dispar SAW760.
The target of test [8] is HLA-B*15:01. The test is described as above. The conditions noted are these: source organism: Entamoeba dispar SAW760.
A further test concerns the target HLA-B*15:17. The description is as above. The conditions noted are these: source organism: Entamoeba dispar SAW760.
A further test has as its target HLA-B*18:01. The test is described as above. The conditions noted are these: source organism: Entamoeba dispar SAW760.
In a further test the target is HLA-B*27:03. Described as above. The conditions noted are these: source organism: Entamoeba dispar SAW760.
In another test the target is HLA-B*39:01. The test is described as above. The conditions noted are these: source organism: Entamoeba dispar SAW760.
For test [9], the target named is HLA-B*46:01. The description is as above. The conditions noted are these: source organism: Entamoeba dispar SAW760.
Test [10] deals with HLA-B*51:01. Described as above. The conditions noted are these: source organism: Entamoeba dispar SAW760.
Test [11] has as its target HLA-B*57:01. The test is described as above. The conditions noted are these: source organism: Entamoeba dispar SAW760.
The target of test [12] is HLA-A*01:01. The experiment in a line: IEDB peptide-MHC binding, purified MHC/competitive/radioactivity; filed as Kd, often an IC50 or EC50 that approximates it; ≥ and ≤ were set here for values at or beyond the usual limits of such assays. The conditions noted are these: source organism: Dengue virus 3 Martinique/1243/1999.
Test [13] has as its target HLA-B*51:01. Described as above. The conditions noted are these: source organism: Dengue virus 3 Martinique/1243/1999.
The target in another test is HLA-B*44:02. The test is described as above. The conditions noted are these: source organism: Dengue virus 3 Sri Lanka/1266/2000.
A further test has as its target HLA-B*44:03. Described as above. The conditions noted are these: source organism: Dengue virus 3 Sri Lanka/1266/2000.
Test [14] concerns the target HLA-A*03:01. In words: IEDB peptide-MHC binding, purified MHC/competitive/fluorescence; filed as Kd, often an IC50 or EC50 that approximates it; ≥ and ≤ were set here for values at or beyond the usual limits of such assays. The conditions noted are these: source organism: Escherichia coli E22.
Test [15] addresses HLA-A*01:01. The experiment in a line: IEDB peptide-MHC binding, purified MHC/direct/fluorescence; filed as Kd, often an IC50 or EC50 that approximates it; ≥ and ≤ were set here for values at or beyond the usual limits of such assays. The conditions noted are these: source organism: Escherichia coli.
The target in the next test is HLA-A*02:01. Described as above. The conditions noted are these: source organism: Escherichia coli.
Test [16] deals with HLA-A*24:03. The description is as above. The conditions noted are these: source organism: Escherichia coli.
Test [17] has as its target HLA-A*26:01. The description is as above. The conditions noted are these: source organism: Escherichia coli.
The next test addresses HLA-A*30:01. Described as above. The conditions noted are these: source organism: Escherichia coli.
Test [18] deals with HLA-A*31:01. The test is described as above. The conditions noted are these: source organism: Escherichia coli.
Test [19] addresses HLA-A*69:01. Described as above. The conditions noted are these: source organism: Escherichia coli.
The next test has as its target HLA-B*08:01. Described as above. The conditions noted are these: source organism: Escherichia coli.
For test [20], the target named is HLA-B*15:01. Described as above.
A further test addresses HLA-B*27:05. The test is described as above. The conditions noted are these: source organism: Escherichia coli.
In the next test the target is HLA-B*40:01. Described as above. The conditions noted are these: source organism: Escherichia coli.
Test [21] concerns the target HLA-B*58:01. The description is as above. The conditions noted are these: source organism: Escherichia coli.
The target in test [22] is HLA-B*46:01. Described as above. The conditions noted are these: source organism: Yellow fever virus.
For another test, the target named is HLA-A*32:01. In words: IEDB peptide-MHC binding, purified MHC/competitive/radioactivity; filed as Kd, often an IC50 or EC50 that approximates it; ≥ and ≤ were set here for values at or beyond the usual limits of such assays. The conditions noted are these: source organism: Dengue virus 1 Brazil/97-11/1997.
Where [23] appears, read: source organism: Dengue virus 4 Philippines/H241/1956.
The mark [24] stands for this setting: source organism: Mammarenavirus juninense.
Setting [25] is: source organism: West Nile virus.
The mark [26] stands for this setting: source organism: Dengue virus 3 Martinique/1243/1999.
Setting [27] is: source organism: Entamoeba dispar SAW760.
Setting [28] is: source organism: Dengue virus 3 Sri Lanka/1266/2000.
[29] abbreviates: source organism: Escherichia coli.
Setting [30] is: source organism: Yellow fever virus.
Where [31] appears, read: source organism: Dengue virus 2 Jamaica/1409/1983.
[32] abbreviates: source organism: Dengue virus 1 Brazil/97-11/1997.

As a reminder, the Kd is the equilibrium constant for the complex coming apart. In the case of EASISNITTA, the figures for the Kd in the test with HLA-B*57:01 [1] (setting [23]) and in the test with HLA-B*58:01 [2] (setting [23]) were no less than 23500 nM and 1630 nM, respectively.
As to KLFDLHGRR, the Kd with HLA-A*03:01 [3] (setting [24]) came out at 241 nM; with HLA-A*31:01 [4] (setting [24]), 11.1 nM.
With KVLCPYMPK, the Kd with HLA-A*03:01 [3] (setting [25]) turned out to be 562 nM; with HLA-A*11:01 (setting [25]), 3.7 nM; in the test with HLA-A*31:01 [4] (source organism: Japanese encephalitis virus) it was 60.5 nM.
Take LATAIAGAW: the Kd stood at 19.9 nM with HLA-B*53:01 (setting [26]), 7.19 nM in the test with HLA-B*57:01 [1] (setting [26]) and 5.6 nM in the test with HLA-B*58:01 [2] (setting [26]).
Turning to LMTHTWHAK, the Kd with HLA-A*02:03, with HLA-A*02:12, with HLA-A*02:19, in the test with HLA-A*23:01 (setting [27]), with HLA-A*24:03 [5] and in the test with HLA-A*26:01 [6] was no less than 20000 nM throughout. In addition, the Kd with HLA-A*31:01 [4] (setting [27]) was 119 nM; in the test with HLA-A*68:02 it was no less than 20000 nM; in the test with HLA-A*69:01 [7], no less than 20000 nM; with HLA-B*15:01 [8], no less than 20000 nM; with HLA-B*15:17, no less than 20000 nM; with HLA-B*18:01, no less than 20000 nM. For the same sequence, the dissociation constant (Kd) with HLA-B*27:03, with HLA-B*39:01, with HLA-B*46:01 [9], with HLA-B*51:01 [10] and in the test with HLA-B*57:01 [11] was no less than 20000 nM throughout.
Regarding LTAAVLLLI, the Kd in the test with HLA-A*01:01 [12] was no less than 78100 nM; in the test with HLA-B*51:01 [13] it was 647 nM; with HLA-B*58:01 [2] (setting [26]), 11.3 nM.
Turning to MEITAEWLW, the Kd with HLA-B*44:02 worked out at 4.63 nM; with HLA-B*44:03 it was 9.15 nM; in the test with HLA-B*53:01 (setting [28]), 32.1 nM; in the test with HLA-B*58:01 [2] (setting [28]), 5.39 nM.
As to MFIIKYFKK, the results for the Kd with HLA-A*03:01 [14] and in the test with HLA-A*31:01 [4] (source organism: Escherichia coli E22) were no less than 20000 nM and 246 nM, respectively.
MQLAKEHNF: in the test with HLA-A*23:01 (source organism: Francisella tularensis subsp. tularensis FSC198), the equilibrium dissociation constant (Kd) worked out at 29.1 nM.
Turning to NMERKLNLS, the Kd in the test with HLA-A*01:01 [15], with HLA-A*02:01, with HLA-A*03:01 [3] (setting [29]), with HLA-A*11:01 (setting [29]), with HLA-A*24:03 [16] and with HLA-A*26:01 [17] was no less than 20000 nM throughout. Further, the Kd with HLA-A*30:01, with HLA-A*31:01 [18], with HLA-A*69:01 [19], with HLA-B*08:01, with HLA-B*15:01 [20] (setting [29]) and in the test with HLA-B*27:05 was no less than 20000 nM in each case. For the same sequence, the Kd with HLA-B*40:01 and in the test with HLA-B*58:01 [21] was no less than 20000 nM each time.
Regarding RSHAAIGAY, the dissociation constant (Kd) in the test with HLA-A*11:01 (setting [30]) is no less than 20000 nM; with HLA-B*15:01 [20] (setting [30]), 87 nM; with HLA-B*46:01 [22], no less than 20000 nM; with HLA-A*31:01 [4] (setting [30]), no less than 20000 nM.
RSWNSGHEW: the dissociation constant Kd came out at 2.05 nM in the test with HLA-B*57:01 [1] (setting [31]) and 1.05 nM with HLA-B*58:01 [2] (setting [31]).
As for RSWNSGYDW, the figures for the Kd in the test with HLA-A*32:01, with HLA-B*57:01 [1] (setting [32]) and with HLA-B*58:01 [2] (setting [32]) were 54.3 nM, no more than 1 nM and 13.5 nM, respectively.
